Measured values taken from the nanobody polyreactivity screen of Harvey et al. (2022).

Experiment: yeast display, Sf9 membrane polyspecificity reagent, FACS + sequencing; frameworks hold sequencing errors
How it was run: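 Nanobodies came from a synthetic yeast display library in Saccharomyces cerevisiae BJ5465, induced with galactose for 36–48 hours and stained for 1 hour at 4 °C with 10% biotinylated, detergent-solubilized Sf9 membrane reagent. Cells were enriched on streptavidin microbeads and then FACS-sorted, with low and high (top ~1%) gates set on anti-HA fluorescence for expression and streptavidin fluorescence for reagent binding. Each polyreactivity label reflects the gate a clone came from. Genes were amplified by colony PCR, sequenced by MiSeq 2 × 250 and filtered by CDR length.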

Sequence | polyreactivity (PSR sort gate)
QVQLVESGGGLVQAGGSLRLSCAASGSIFWTNAMGCYRQAPGKERELVASIHSSDASTDYADSVKGRFTISRDNEKNTVYLQMNSLKPEDTAVYYCNAAGAYPYYSEDYYWGQGSQVTVSS | low polyreactivity
QDQLVESGGGLVQAGGSLRLICAASGSNLNNYAMGWSRQAPGKERELVAAISSSGGTNYADSVKGRFTISRDNAKNTVYLQMNSLKPEDTAVYYCNADVLEGGYDYWGQGPQVTVSS | low polyreactivity
QVQLVESGGGLVQAGGSLRLSCAASGRTFWYYAMGWYRPAPGKERELVAGIRSGGSTYYADSVKGRFTISRDNAKNTVYLQMNSLKPEDTAVYYCATDYYYSNAKYDYWGQGTQVTVSS | high polyreactivity
QLQLEESGGGLVQAGGSLRLSCAASGRIFNYYAMGWYRPAPGKEKELVAAISTVCGSTYYADSVKGRFTISRDKAKNTVYIQMHSLKPEDTSVYYCAAYQYYDFSYSYDYWGQGTQVTVSS | low polyreactivity
QVQLVESGGGIVQAGGILRLSSAASGRIFLGYAMGWSRQAPGKERELVASISGPAGSTNYADSVKGRFTISRDNAKNTVYLQMNSLKPEDTAVYYCAAEERYAYRYDYWGQGTQVTVSS | high polyreactivity
QVQLVESGGGLVQAGGSLRLSCAASGFTFWTYAMGWYRPAPGKERELVAAIDSGVSTYYADSVKGRFTISRDNAKNTVYLQMNSLKPEDTAVYYCNAGPSVTSGYDYDYWGQGTQVTVSS | low polyreactivity
QVQLVESGGGLVQAGGSLRLSCAASGSIFRYYVMGWYRQAPGKERELVAAISWSGGTTYYADSVKGRFTISRDNAKNTVYLQMNSLKPEDTAVYYCAAKGPLGYYHATDYHDYWGQGTQVTVSS | high polyreactivity
QVQLVESGGGLVQAGGSLRLSCAASGRIFDNYVMGWYRQAPGKERELVAAISSGGGTYYADSVKGRFTISRDNAKNTVYVQMNSLKPEDTAVYYCAKRRVYDRSFGRYDYWGQGTQVTVSS | low polyreactivity
QVQLVESGGGLVQAGGTLRLSCAASGRTFLWNDMGWDRQAPGQERELVAAITGSDGTYADSVKGRFTISRDNAKNTVYLQMNSLKPEDNAVYYCAAETYWFFPWKYDYWGQGTQVTVSS | low polyreactivity
QVQLVESGGGLVQAGGSLRLSCAASGGIFRYYAMGWYRQAPGKERELVARISRRAGSTYYADSVKGRFTISRDNAKNTVYLQMNSLKPEDTAVYYCNKVGGTLGYDYWGQGTQVTVSS | high polyreactivity
QVQLVESGGGLVQAGGSLRLSCAASGFTFSRNAMGWYRQAPGKERELVAAISSSGGSTYYADSVKGRFTISRDNAKNTVYLQMNSLKPEDTAVYYCNVDHWRRGRSDNYWGQGTQVTVSS | high polyreactivity
QVQLVESGGGLDQAGGSLPLSCAASGITSYVYAMRWYRQAPGKERELVASISWTGGNTYADSVKGRFTISRDNAKNTVYLPMNSLKPEDTAVYYCNAGRSWDYWYGYDYWGQGTQVTVSS | low polyreactivity
QVQLVESGGGLVQAGGSLRIICAASGTTFVYNDMGWYRQAPGKEGELVAGITTSGGSTYYADSVKGRFTISRDNAKNTVYLQRNSLKPEDTAVYYWAAPAFSAWLEMDYWGQGTQVTVSS | low polyreactivity
QVQLVESGGGLVQAGGSLRLSCAASISSSNAMGWYRQAPGKERELVAAIRWSGTSTYYADSVKGRFTISRDNANNTVYLQMNSLKPEETAVYYCAARYVRVGYDYWGQGTQVTVSS | high polyreactivity
QVQLVESGGGLVQAGGSLRLSCAASGSIFVTYAMGWYRQAPGKERELVAAITGRDGITYADSVKGRFTISCDNAKNTVYVQMNSLKPEDTAVYYCAAVSHGVYYQYRRRYYSWGQGTQVTVSS | high polyreactivity
QVQLVESGGGLVQAGGSLRLSCAASGFIFIKYAMRCYRQAPGKERELVAAISFRGGRTNYADSVKGRFTISRDNAKNTVYLQMNSLKPEDTAVYYCAAETRDYSEGYYWGQGTQVTVSS | high polyreactivity
QVQLVESGGGLVQAGGSLRLSCAASGSTFESNAMRWYRQAPGKERELVAAISRGGNTYYADSVKGLFTISRDNAKYTVYLQMHSLKPEDTAVYYCNVDRGNPVPPSEYWGQGTKVTVSS | low polyreactivity
